In patent publication US20260009804A1 (GEORGIA TECH RESEARCH, published 2026):

Key:
[1] = target: T1, full-length endogenous human myocilin from spent medium of human trabecular meshwork (hTM) cells (human, UniProt Q99972 33-504); experiment: immunoprecipitation from spent hTM medium
T1 construct: Secreted protein; It was heparin-enriched for dot blots and used directly from spent medium for immunoprecipitation; also called full-length myocilin; hTM-secreted myocilin
T1 sequence: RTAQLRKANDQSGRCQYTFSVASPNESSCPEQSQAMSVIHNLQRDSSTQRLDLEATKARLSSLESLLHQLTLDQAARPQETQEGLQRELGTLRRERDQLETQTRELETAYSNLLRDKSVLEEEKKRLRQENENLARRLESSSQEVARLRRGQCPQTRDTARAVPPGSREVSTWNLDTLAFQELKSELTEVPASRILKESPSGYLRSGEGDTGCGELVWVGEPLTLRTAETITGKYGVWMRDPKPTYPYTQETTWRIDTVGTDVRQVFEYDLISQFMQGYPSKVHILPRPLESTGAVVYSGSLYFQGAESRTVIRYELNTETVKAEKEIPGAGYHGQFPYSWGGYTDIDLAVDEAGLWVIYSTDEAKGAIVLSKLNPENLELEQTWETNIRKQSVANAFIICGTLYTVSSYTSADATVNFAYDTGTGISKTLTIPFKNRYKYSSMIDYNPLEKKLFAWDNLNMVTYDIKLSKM
Method: Immunoprecipitation: Antibodies in IgG format (0.5 ng/ml) were incubated with 10 mL spent hTM medium (experiment) or 10 mL buffer control (50 mM HEPES pH 7.5, 200 mM NaCl, 10% glycerol) overnight at 4° C. on a rocker. Subsequently, Pierce™ Protein A/G Plus agarose suspension (50 μL, ThermoFisher Scientific®) was added, and samples were rocked an additional 2 hours at room temperature. Resin was pelleted by centrifugation (10 minutes at 1,000× g), washed at least 5 times with 500 uL buffer. Bound proteins were eluted by adding 50 μL 2× Laemmli buffer, incubated for 10 minutes at room temperature, followed by pelleting and removing the supernatant. Samples were supplemented to 3% v/v β-mercaptoethanol and heated 10 minutes at 95° C. prior to SDS-PAGE and Western blot analysis.

[2] = target: T2, mLZ (mouse myocilin leucine zipper, residues 93-171) (mouse, UniProt O70624 93-171); experiment: summary of ELISA and dot blot
T2 construct: Arose when Factor Xa cleaved mCCLZ after TLGR92; also called mouse leucine zipper; mouse LZ
T2 sequence: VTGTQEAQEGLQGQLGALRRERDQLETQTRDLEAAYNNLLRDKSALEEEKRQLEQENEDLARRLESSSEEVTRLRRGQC

[3] = target: T3, hNTD (human myocilin N-terminal domain, residues 33-226) (human, UniProt Q99972 33-226); experiment: dot blot, purified construct
T3 construct: also called longer hNTD construct
T3 sequence: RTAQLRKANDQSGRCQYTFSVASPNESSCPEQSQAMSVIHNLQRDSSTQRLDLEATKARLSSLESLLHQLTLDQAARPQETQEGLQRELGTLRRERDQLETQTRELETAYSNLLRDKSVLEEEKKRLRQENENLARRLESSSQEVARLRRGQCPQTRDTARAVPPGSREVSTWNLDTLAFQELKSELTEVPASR
Method: (§1) Dot Blots and Western Blots: Dot and western blots were conducted using protocols previously described in detail (Patterson-Orazem, et al., Exp Eye Res, 173:109-112 (2018)). Briefly, protein samples were immobilized on methanol-activated polyvinylidene difluoride membranes (Millipore®) by electrophoresis for Western blots and by direct deposition of 2 μL sample per dot for dot blots. Membranes were blocked overnight in 2% milk in PBS supplemented with 0.5% TWEEN-20, then probed with primary antibodies. Custom scAbs were tested at 1 μg/mL; IgGs were tested at 0.5 μg/mL to account for bivalency. Protein expression in cell lysates was confirmed using 1:1000 mouse anti-His antibody (RRID: AB_2533947). […] Custom scAbs were detected with 1:2000 (whole cell lysate dot blots) or 1:5000 (all other experiments) dilution of HRP-conjugated goat anti-human κ light chain secondary antibody (RRID: AB_619883). Binding of control antibodies and custom IgGs was detected using 1:2000 (whole cell lysate dot blots) or 1:5000 (all other experiments) dilution of HRP-conjugated goat anti-mouse IgG (H+L) secondary antibody (RRID: AB_2533947).
(§2) Conformational specificity was assessed by comparing results from dot blots (FIGS. 4A-4D) and Western blots (FIG. 4E-4H), experiments were conducted in parallel with specific quantities of purified myocilin constructs. […]

[4] = target: T4, hCCLZ (human myocilin coiled-coil/leucine zipper, residues 69-185) (human, UniProt Q99972 69-185); experiment: dot blot, purified construct
T4 construct: Made in E. coli (pET-30 XaLIC); Tags were cleaved for immunization and panning; the tagged form was used in cell-lysate dot blots; also called human coiled-coil/leucine zipper
T4 sequence: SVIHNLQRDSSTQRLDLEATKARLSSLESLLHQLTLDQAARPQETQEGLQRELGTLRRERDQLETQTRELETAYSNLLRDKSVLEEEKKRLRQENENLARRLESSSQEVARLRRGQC
Method: as §1, §2

- binding result [1]: binds
- binding result [2]: binds
- binding result [3]: binds
- binding result [4]: binds
B1: 2A4 IgG (monoclonal antibody 2A4) (antibody, V domains shown)
VH: EVQLQQSGAELMRSGASVKLSCTASGFNIKDYYMHWVKQRPEQGLEWIGWIDPENGDTEYAPKFQGKATMTADTSSNTAYLQLSSLTSEDTAVYYCNPFVYWGQGTLVTVSA
VL: DIVMTQSQKFMSTSVGDRVSVTCKASQNVGTNVAWYQQKPGQSPKALIYSASYRYSGVPDRFTGSGSGTDFTLTISNVQSEDLAEYSCQQYNSYPYTFGGGTKLEIKR
notes: Full length chimeric human IgG1 with kappa light chain (IgG-Abvec and IgK-Abvec vectors), produced in CHO-K1 cells
